Measurements taken from PMC3804511.

What was measured:
[1] = biological target: T1, GST-Kic1(1-359)-His6 (wild type) (S. cerevisiae) (UniProt P38692)
T1 sequence: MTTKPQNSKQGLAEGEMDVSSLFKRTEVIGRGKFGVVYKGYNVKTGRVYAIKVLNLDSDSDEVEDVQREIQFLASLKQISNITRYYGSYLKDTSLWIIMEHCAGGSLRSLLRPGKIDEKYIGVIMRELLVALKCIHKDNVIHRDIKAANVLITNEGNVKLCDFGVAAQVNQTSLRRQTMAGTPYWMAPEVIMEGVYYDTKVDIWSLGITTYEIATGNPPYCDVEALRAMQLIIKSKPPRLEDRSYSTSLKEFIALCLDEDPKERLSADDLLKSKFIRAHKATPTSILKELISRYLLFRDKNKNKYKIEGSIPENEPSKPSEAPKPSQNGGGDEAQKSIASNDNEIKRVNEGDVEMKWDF

[2] = biological target: T1, GST-Kic1(1-359)-His6 (wild type) (S. cerevisiae); remark: listed apart in the source

half maximal activation (Kact) of Kic1 kinase activity (32P transferred to GST-Cbk1(673-756)-His6); Hym1 in 2-fold serial dilutions from 13 µM, Kic1 constant at 0.5 µM [1]: 2 µM
Kic1 kinase activity (reaction rate over 15 min on GST-Cbk1(673-756)-His6) with Hym1 relative to without Hym1 [2]: > 5 fold
B1: Hym1-His6 (full length, GST cleaved) (natural protein)
chain: MFKKYKNQDLDMAFWWKKNPKTPSDYARLIIEQLNKFSSPSLTQDNKRKVQEECTKYLIGTKHFIVGDTDPHPTPEAIDELYTAMHRADVFYELLLHFVDLEFEARRECMLIFSICLGYSKDNKFVTVDYLVSQPKTISLMLRTAEVALQQKGCQDIFLTVGNMIIECIKYEQLCRIILKDPQLWKFFEFAKLGNFEISTESLQILSAAFTAHPKLVSKEFFSNEINIIRFIKCINKLMAHGSYVTKRQSTKLLASLIVIRSNNALMNIYINSPENLKLIMTLMTDKSKNLQLEAFNVFKVMVANPRKSKPVFDILVKNRDKLLTYFKTFGLDSQDSTFLDEREFIVQEIDSLPRIISSTTEVSNNNASSSNVASITSPSSVMNNQSSILTHSTSPDSR
